Experimental findings from US20180002379 are described below.

Common to all, as to assay: cell_activity
One data set deals with ZFN SBS#8266 (synthetic).
For data set [1], the system named is ZFN SBS#46693 (synthetic).
Data set [2] has as its system ZFN SBS#46700 (synthetic).
Data set [3] has as its system ZFN SBS#46698 (synthetic).
Data set [4] deals with ZFN SBS#46705 (synthetic).
Data set [5] has as its system ZFN SBS#46696 (synthetic).
Data set [6] concerns ZFN SBS#46697 (synthetic).
Data set [7] relates to ZFN SBS#20505 (synthetic).
Setting [8] is: pair 46700:46705 at CCR2, GFP 0.05.

On to “GTCGTCCTCATC (double strand) [CCR2 left half-site]”, for which the activity in the data set on ZFN SBS#8266 (synthetic) (pair 8266:20505 at CCR2, K562) turned out to be 5.23 % indel; in data set [1] (pair 46693:46697 at CCR2, p 0.0013), 0.07 % indel.
On to “TTATCAGGATGAGGATGACCAGCATGTT (double strand) [CCR5 shifted left 6F]”, for which, in data set [2] (pair 46700:46705, K562), the activity was found to be 27.4 % indel.
On to “GGTCGTCCTCATCTTAAT (double strand) [CCR2 shifted left half-site]”, for which the activity came to 0.08 % indel in data set [2] (setting [8]) and 0 % indel in data set [3] (pair 46698:46705 at CCR2).
In turn, “TTATCAGGATGAGGATGACCAGCATGTT (double strand) [CCR5 shifted left 4F]” had an activity in data set [3] (pair 46698:46705, K562) of 23.8 % indel.
As for “CAAAAAGCTGAAGTGCTT (double strand) [CCR2 shifted right half-site]”, in data set [4] (setting [8]), the activity stood at 0.08 % indel.
“ATAAACTGCAAAAGGCTGAAGAGCATGA (double strand) [CCR5 right target]”: the activity in data set [5] (pair 46693:46696, K562, printed 417, 632 of 15162 reads) turned out to be 4.17 % indel; in data set [6] (pair 46693:46697, K562) it was 10 % indel.
In turn, “AGGATGAGGATGACCAGCATGTTGTTGC (double strand) [CCR5 left target]” displayed an activity in data set [1] (pair 46693:46697, K562, GFP 0.01) of 10 % indel.
In the data set with ZFN SBS#8266 (synthetic) (pair 8266:20505, K562), “GATGAGGATGAC (double strand) [CCR5 left half-site (8266)]” registered an activity of 29.9 % indel.
“AAACTGCAAAAG (double strand) [CCR5 right half-site (20505)]” yielded an activity in data set [7] (pair 8266:20505, K562) of 29.9 % indel.
Take “AAACTGCAAAAA (double strand) [CCR2 right half-site]”: the activity in data set [5] (pair 46693:46696 at CCR2, background level, no SELEX evidence of binding the CCR2 adenine) came out at 0.01 % indel; in data set [6] (pair 46693:46697 at CCR2, no SELEX evidence of binding the CCR2 adenine) it was 0.07 % indel; in data set [7] (pair 8266:20505 at CCR2, K562), 5.23 % indel.
“TGCAAAAGGCTGAAGAGCATGACTGACA (double strand) [CCR5 shifted right 6F]” gave an activity in data set [4] (pair 46700:46705, K562, GFP 0.03) of 27.4 % indel.
